Data taken from patent US20260209365A1, “ANTI-COMMON GAMMA CHAIN PROTEINS AND COMPOSITIONS OF MATTER” (SINOMAB BIOSCIENCE LIMITED, priority 2023, published 2026).
Changes are numbered by the printed parent chain.

B1: hSM-05A: full-length humanized anti-γc antibody derived from SM-05A by framework patching (antibody, V domains shown)
VH: QVQLVQSGAEVLKPGASVKVSCKASGYTFTEYTMHWVKQARGQRLEWIGGIDPYNGGATYNQRFKGKATLTTDTSTSTAYMELRNLRSDDTAVYYCARRRLYYGNALDYWGQGTLVTVSS
VL: DIVMTQSPLSLPVTPGEQASISCRSSQSLVHSNGNTYLHWYLQKPGQSPQLLIYKVSSRFSGVPDRFSGSGSGTDFTLKISRVEAEDVGVYFCSQTTHVPFTFGSGTKLEIKR
B2: hSM-05E: full-length humanized anti-γc antibody derived from SM-05E by framework patching (antibody, V domains shown)
VH: B1 VH with Y54N, N55T, A58V, R63K, L101R, N105Y
VL: B1 VL with L29I, H39E, S58N, T96S, T102M

What was measured:
mouse γc = target: T1, mouse γc (Mus musculus, UniProt P34902); assay: BLI binding kinetics to mouse γc protein
T1 construct: 6×His (C)
T1 sequence (P34902 with tags, fused parts or gaps): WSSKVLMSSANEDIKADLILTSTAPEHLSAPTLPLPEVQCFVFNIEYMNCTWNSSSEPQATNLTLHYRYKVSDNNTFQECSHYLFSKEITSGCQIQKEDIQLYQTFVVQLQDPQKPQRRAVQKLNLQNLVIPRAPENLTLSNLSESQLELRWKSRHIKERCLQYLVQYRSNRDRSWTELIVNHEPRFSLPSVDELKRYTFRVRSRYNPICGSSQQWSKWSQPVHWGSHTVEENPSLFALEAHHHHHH

T cells = assay: Mixed lymphocyte reaction (MLR) in human PBMC; format: cell-based; details: CFSE, flow cytometry
Description: To provide hints at effects of humanized antibodies to target GvHD, MLR assay was developed in our PBMC system (FIG. 29A). In brief, total T cells were isolated from PBMC of donor 1 while T cells were depleted from PBMC of donor 2. T cells from donor 1 were activated with a cocktail of anti-CD3 and anti-CD28 antibodies in the presence of IL-2. Simultaneously, T cells were incubated with humanized antibodies or ritlecitinib together with inducing agents. After 3 days, T cells were labelled with CFSE before co-culture with T-cell depleted culture from donor 2 for 6 days. Proliferating T cells were identified as CFSE low or CSFE negative population in flow cytometry.

common marmoset γc = assay: BLI binding kinetics to common marmoset γc protein; set-up: species or system common marmoset (Callithrix jacchus)
Description: (§1) Full-length humanized antibodies were evaluated by BLI to access their binding kinetics. The binding activities of full-length anti-γc antibody were investigated using γc proteins (extracellular domain) from human and common marmoset (either purchased or in-house generated). Briefly, anti-γc antibody (20 μg/mL) was immobilized on biosensors via interactions with anti-human IgG; serially diluted γc proteins (at a concentration of 158.7 nM, 79.4 Nm, 39.7n M and 0 nM respectively) were subsequently added following standard operation protocols of the Octet ReD96 system to plot out the association and dissociation curve. Irrelevant antibody (SM03, anti-human CD22 chimeric IgG1 antibody, SinoMab BioScience Limited) was used as the control reference. The KD is within the picomolar-single digit nanomolar range.

IL-15 induced p-STAT5 = assay: Suppression of p-STAT in PBMC, IL-15; format: cell-based, human; details: antibody 10 μg/ml, compared to isotype control
Description: Given numbers refer to the percentage of inhibition compared to isotype control stimulated with respective γc cytokine. Antibody concentration is 10 μg/ml.

human γc proteins = target: T2, human γc proteins (Homo sapiens, UniProt P31785); assay: BLI binding kinetics to human γc protein
T2 construct: extracellular domain of human γc protein (amino acids: 1-262); host or cells: Expi-CHO (e.g.)
T2 sequence (P31785 23-262): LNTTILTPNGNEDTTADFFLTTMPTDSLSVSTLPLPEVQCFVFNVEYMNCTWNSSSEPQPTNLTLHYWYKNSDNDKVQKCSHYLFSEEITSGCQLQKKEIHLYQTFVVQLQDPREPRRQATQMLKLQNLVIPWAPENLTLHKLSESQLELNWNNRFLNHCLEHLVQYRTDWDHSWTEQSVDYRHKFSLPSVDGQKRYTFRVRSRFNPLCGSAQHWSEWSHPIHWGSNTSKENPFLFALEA
Description: as §1

cynomolgus γc = assay: BLI binding kinetics to cynomolgus γc protein; set-up: species or system cynomolgus (Macaca fascicularis)
[1] = test system: γc proteins from chimpanzee; assay: ELISA binding of full-length antibodies to chimpanzee γc; set-up: species or system chimpanzee (Pan troglodytes); details: humanized antibodies with back-mutation
Description: Selected clones of full-length antibodies were evaluated by ELISA to access the binding specificity. The binding activities of full-length anti-γc antibody were investigated using γc proteins (extracellular domain) from human (SEQ ID NO: 205-206), cynomolgus (Sequence ID: XP_005593949.1, SEQ ID NO: 207-208) and chimpanzee (Sequence ID: XP_008971810.1, SEQ ID NO: 209-210) either purchased from Sino Biological or in-house generated.
Humanized antibodies with back-mutation (hSM-05A and hSM-05E) were tested in the following assays. Binding affinities were investigated in the ELISA assays.

HaCaT cells = assay: ADCC assay on HaCaT cells with human PBMC; format: cell-based; details: 33 nM (5 μg/ml), vs isotype antibody
Description: γc expressing human keratinocyte HaCaT cell line was utilized as the target cells in ADCC and CDC assays. To determine the ADCC activity, HaCaT cell was pre-binded with anti-γc antibodies before co-culture with human PBMC. To determine the CDC activity, HaCaT cell was pre-binded with anti-γc antibodies before incubation with low-endotoxin complement proteins extracted from guinea pig. ADCC was determined by percentage of PI+ HaCaT cells in flow cytometry analysis while CDC was measured by the WST-8 proliferative assay of HaCaT cells in a 96-well plate (FIG. 22A).

Ramos B cells = assay: WST-8 proliferation assay, IL-4/IL-21 rescue of anti-IgM induced cell death; format: cell-based, human; details: humanized antibodies; 33 nM (5 μg/ml); vs ritlecitinib
Description: The effects of anti-γc antibodies in blocking IL-4 and IL-21 rescues of Ramos cell death after anti-IgM induced hyperactivation were investigated by WST-8 proliferation assay. In brief, Ramos cells (50000 cells in 100 l) were seeded into 96-well plate and stabilized at 37° C. for an hour. Cells were pretreated in anti-γc antibodies or ritlecitinib for an hour, followed by incubation of IL-4 (10 ng/ml) or IL-21 (10 ng/ml) and anti-IgM (2 ug/ml, #109-006-129, Jackson ImmunoResearch). Aft er 48 hours, 10 μl WST-8 reagent (ab228554, Abcam) was added to each well and incubated for 4 hours.
WST-8 could be reduced by cellular dehydrogenases to an orange formazan product, which the amount of formazan produced is directly proportional to the number of living Ramos cells. Optical density (OD) of each well was measured by absorbance at 450 nm using Varioskan LUX Multimode Microplate Reader (ThermoFisher Scientific).

common marmoset γc, sequence (as listed by the source): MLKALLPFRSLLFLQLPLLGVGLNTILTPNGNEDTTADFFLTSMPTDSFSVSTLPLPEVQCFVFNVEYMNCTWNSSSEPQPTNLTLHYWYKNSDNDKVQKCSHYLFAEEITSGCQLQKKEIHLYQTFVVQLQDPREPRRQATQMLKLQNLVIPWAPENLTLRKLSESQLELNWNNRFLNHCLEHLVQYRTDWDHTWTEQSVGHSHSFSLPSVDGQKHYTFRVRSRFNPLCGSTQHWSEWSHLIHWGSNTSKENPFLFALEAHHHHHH
cynomolgus γc, sequence (as listed by the source): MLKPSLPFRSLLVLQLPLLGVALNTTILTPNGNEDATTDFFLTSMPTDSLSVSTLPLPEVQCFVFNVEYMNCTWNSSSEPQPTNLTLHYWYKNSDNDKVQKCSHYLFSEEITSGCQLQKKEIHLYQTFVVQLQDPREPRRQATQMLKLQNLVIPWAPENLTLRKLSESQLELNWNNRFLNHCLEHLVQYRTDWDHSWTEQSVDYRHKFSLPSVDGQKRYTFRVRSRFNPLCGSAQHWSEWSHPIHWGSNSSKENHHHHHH
γc proteins from chimpanzee, sequence (as listed by the source): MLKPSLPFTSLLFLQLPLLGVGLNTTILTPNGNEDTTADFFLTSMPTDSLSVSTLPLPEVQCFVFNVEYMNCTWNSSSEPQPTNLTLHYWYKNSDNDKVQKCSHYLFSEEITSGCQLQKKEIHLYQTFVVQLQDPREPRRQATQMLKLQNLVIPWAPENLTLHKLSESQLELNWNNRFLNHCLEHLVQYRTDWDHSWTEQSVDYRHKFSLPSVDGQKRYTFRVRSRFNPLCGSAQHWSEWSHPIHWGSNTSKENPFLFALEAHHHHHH

Molecule	Ka (mouse γc) [M⁻¹ s⁻¹]	Kdis (mouse γc) [s⁻¹]	inhibition of MLR induced expansion of cytotoxic T cells (T cells)	suppression of MLR induced expansion of T helper cells (T cells)	Ka (common marmoset γc) [M⁻¹ s⁻¹]	Kdis (common marmoset γc) [s⁻¹]	IL-15 induced p-STAT5, percentage of inhibition (IL-15 induced p-STAT5) [%]	Ka (human γc proteins; Experiment 1) [M⁻¹ s⁻¹]	Kdis (human γc proteins; Experiment 1) [s⁻¹]	Ka (human γc proteins; Experiment 2) [M⁻¹ s⁻¹]	Kdis (human γc proteins; Experiment 2) [s⁻¹]	Ka (cynomolgus γc) [M⁻¹ s⁻¹]	Kdis (cynomolgus γc) [s⁻¹]	ELISA binding to chimpanzee γc [1]	ADCC activity (HaCaT cells)	restimulation of anti-IgM induced cell death in presence of IL-4 or IL-21 (WST-8) (Ramos B cells)
B1	6580	0.000712	could significantly inhibit	the suppression was milder to T helper cells	300000	0.00121	100	119000	0.000319	175000	0.00144	22500	0.00683	retained the binding affinity and specificity	could not induce any ADCC nor CDC activities	can restimulate anti-IgM induced cell death in a comparable level to ritlecitinib
B2	340000	0.0252	could significantly inhibit	the suppression was milder to T helper cells	333000	0.00175	100	119000	0.000573	327000	0.000944	22500	0.00683	retained the binding affinity and specificity	could not induce any ADCC nor CDC activities	can restimulate anti-IgM induced cell death in a comparable level to ritlecitinib
